Laboratory results taken from patent US20240043883A1 (Board of Trustees of Michigan State University, priority 2021, published 2024).

Legend:
Assay type in all cases: biochemical
[1] = target: T1, Corynebacterium glutamicum Cg10062 variant E114N, SEQ ID NO: 62 (Corynebacterium glutamicum, UniProt Q8NU77, E115N); test: Effect of NADP(H) on ACA hydration during in vitro 3-HP synthesis with cofactor recycling; conditions: 100 mM ACA conversion to 3-HP with 0.001-1 eq NADP^+, 25 °C, pH 8.0
T1 sequence (Q8NU77 with tags, fused parts or gaps E115N): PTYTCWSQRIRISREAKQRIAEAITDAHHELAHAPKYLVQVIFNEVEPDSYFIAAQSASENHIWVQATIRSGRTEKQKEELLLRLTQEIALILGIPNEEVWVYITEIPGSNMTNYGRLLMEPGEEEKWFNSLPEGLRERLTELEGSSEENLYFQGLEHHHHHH
Source text: This in vitro pathway developed in this study utilizes the novel Cg10062 (E114N) hydratase-only mutant with two other enzymes, YdfG and PTDH (FIG. 1). YdfG is a NADP^+-dependent 3-hydroxy acid dehydrogenase from E. coli and has previously been used for the in vivo production of 3-HP via the β-alanine pathway. […] For our system to be applied practically, the cost of cofactor is an important consideration. NADPH is an expensive cofactor and in order for the pathway to be an efficient, cost-effective pathway, the use of sub-stoichiometric amounts of co-factor was carried out. […] The formation of 3-HP in these assays were also confirmed using ^1H NMR (FIG. 4A-C).
All stocks solutions were prepared in 100 mM sodium phosphate pH 8.0. Ethylene glycol (20% w/v) was added to all enzyme stock solutions. […] Each reaction was carried out in duplicate at 25° C. with constant slow mixing on a rocking platform. Reactions were initiated by the addition of ACA. Samples from each reaction were quenched at indicated timepoints for analysis by HPLC and ^1H NMR, as described below.
All samples (100 μL) were quenched and by addition of 5 μL of 18 M sulfuric acid. The final volume was adjusted to 500 μL using 0.01 N sulfuric acid. The samples were prepared for HPLC using Whatman Mini-UniPrep® G2 syringeless filters with a glass microfiber membrane.

pH dependence of MmsB = conditions: in potassium phosphate; 25° C.
Procedure: The pH dependence of MmsB was measured using four different buffer systems: 100 mM potassium phosphate, 50 mM Tris-HCl, 50 mM bis-tris propane and 50 mM HEPES buffers for pH 6.5-8.0, 7.0-9.0, 7.0-9.0 and 7.0-8.0, respectively. The pH dependence was studied using the respective enzyme assay used for kinetic characterization as described previously. All pH studies were carried out in triplicate (1 mL) on a Shimadzu UV2600 spectrophotometer at 25° C. and checked to ensure that the final pH of each assay remained unchanged with the addition of assay components. All stock solutions were prepared in water and the assays were carried out in the respective buffers for each pH.

[2] = 1H NMR characterization of YdfG-catalyzed reduction of MSA; conditions: provided with NADPH as a cofactor
Procedure: The volume was adjusted to 680 μL with 100 mM sodium phosphate pH 8.0. The reaction was initiated with the addition of Cg10062 (E114D) (20 μL of 3 mg mL^−1 stock). ^1H NMR spectra were obtained after incubating the samples at 25° C. for 1 h. […] Resonances at δ 2.23; (t, 2H) and δ 3.58; (t, 2H) correspond to 3-hydroxypropionate.

NADP(H)
inhibitory effect on Cg10062 (E114N) [1]: inhibitory effect

B1: MmsB: 3-hydroxyisobutyrate dehydrogenase from P. putida KT2440, SEQ ID NO: 76 (protein)
chain: MRIAFIGLGNMGAPMARNLIKAGHQLNLFDLNKAVLAELAELGGQISPSPKDAAANSELVITMLPAAAHVRSVYLNEDGVLAGIRPGTPTVDCSTIDPQTARDVSKAAAAKGVDMGDAPVSGGTGGAAAGTLTFMVGASTELFASLKPVLEQMGRNIVHCGEVGTGQIAKICNNLLLGISMIGVSEAMALGNALGIDTKVLAGIINSSTGRCWSSDTYNPWPGIIETAPASRGYTGGFGAELMLKDLGLATEAARQAHQPVILGAVAQQLYQAMSLRGEGGKDFSAIVEGYRKKDENLYFQGLEHHHHHH
modifications: MmsB from Pseudomonas putida KT2440 plus TEV protease recognition site and C-terminal His6-tag
pH of highest activity (pH dependence of MmsB): 7

B2: YdfG: NADP+-dependent 3-hydroxy acid dehydrogenase from E. coli, SEQ ID NO: 75 (protein)
chain: MIVLVTGATAGFGECITRRFIQQGHKVIATGRRQERLQELKDELGDNLYIAQLDVRNRAAIEEMLASLPAEWCNIDILVNNAGLALGMEPAHKASVEDWETMIDTNNKGLVYMTRAVLPGMVERNHGHIINIGSTAGSWPYAGGNVYGATKAFVRQFSLNLRTDLHGTAVRVTDIEPGLVGGTEFSNVRFKGDDGKAEKTYQNTVALTPEDVSEAVWWVSTLPAHVNINTLEMMPVTQSYAGLNVHRQENLYFQGLEHHHHHH
modifications: YdfG from Escherichia coli plus TEV protease recognition site and C-terminal His6-tag
conversion of malonate semialdehyde to 3-HP [2]: complete conversion
